Test results from patent publication US11945858B2, “Antibodies and antibody fragments against HNAV1.7 channel and their use in pain and cancer indications” (NATIONAL RESEARCH COUNCIL OF CANADA, priority 2018, dated 2024).
Where “and” joins values, the source holds several entries; their conditions need not be identical. Equal entries are not always repeated. Entries after “also recorded” stand apart in the source; their conditions may differ.

How the values were obtained:
[1] = tested on: overlapping antigen-peptides derived from DIE3IR; assay: ELISA of mAbs on overlapping antigen-peptides derived from DIE3IR; format: binding, human; details: peptides coated 100-500 ng/well
Method: The peptides were custom-synthesized (Biomatik) and tested for antibody binding by ELISA. […] The wells were blocked with 1% BSA in TBS-T for 30 min and then incubated with 1:1000 dilution of anti-hNav1.7 mAb at room temperature (RT) for one hr. Following three TBS-T washes (3×5 min), mAb binding to peptides was detected by incubating with HRP-conjugated anti-mouse Fc antibody for 90 min at RT in TBS-T. The bound antibody was detected with SureBlue™ TMB reagent kit (KPL) by colorimetric measurement at 450 nm according to manufacturer's instructions.
To identify the epitope for mAb 3A8 on DIE3IR, seven overlapping antigen-peptides were generated (FIG. 15A) and an ELISA was performed to determine the binding between these peptides and the various mAb (FIGS. 15C to 15I).

VHH FC5 = assay: Surface Plasmon Resonance of mAbs, FC5 control; format: binding; details: SPR; 25 °C
Method: (§1) Surface Plasmon Resonance of mAbs. FC5 and FC5DIE3IR proteins were SEC purified using a Superdex 75 column (GE Healthcare) connected to an AKTAPurifier (GE Healthcare) in HBS-EP+ running buffer (10 mM HEPES, pH 7.4, containing 150 mM NaCl, 3 mM EDTA and 0.05% P20) at a flow rate of 1 ml/min. Monomeric eluted peaks were used to flow over Fc-capture 3A8 mAb surfaces. To prepare the 3A8 mAb surfaces, approximately 6000 RUs of anti-mouse IgG (GE Healthcare) was first immobilized on CM5 Series S sensor chips (GE Healthcare) at pH 5.0, using standard amine coupling methods previously reported (Hussack et al., 2011) and according to the manufacturer's instructions (GE Healthcare). HBS-EP running buffer used for SPR experiments. The mAb 3A8 was captured on the anti-mouse IgG surface using 10 μg/ml of mAb, 30 sec contact time and flow rate of 10 μl/min. IMAC-purified DI-D VHH was passed through a Superdex 75 (GE Healthcare) column for SEC purification in HBS-EP buffer (10 mM HEPES, pH 7.4, containing 150 mM NaCl, 3 mM EDTA and 0.005% P20), connected to an AKTAPurifier (GE Healthcare) at a flow rate of 1 ml/min. Test binding experiments of FC5 control and FC5DIE3IR involved flowing 1 μM concentrations of SEC-pure material over the mAb surface at a flow rate of 30 μl/min for 5 min. Surfaces could be regenerated using 10 mM glycine, pH 1.7, with a 120 sec pulse at 20 μl/min. All SPR experiments were evaluated with Biacore T200 Software v 3.0. For kinetic analysis, single cycle kinetic analysis was used by flowing a range of FC5DIE3IR concentrations (320 nM-20 nM) at a flow rate of 30 μl/min, with 600 sec contact time and 1200 sec dissociation. Regeneration conditions were the same as above. Data were fit to a 1:1 binding model and analyzed using the Biacore T200 Software v3.0.
(§2) Surfaces were regenerated by washing with running buffer (HBS-EP). Data were analyzed with BIAevaluation 4.1 software as described (Hussack et al., 2011) and affinities determined using the steady state binding model.
(§3) Surface Plasmon Resonance (SPR) for monoclonal antibodies.

CHO-3E7 = assay: Cell-ELISA on live CHO-3E7 cells; format: cell-based, Chinese hamster; details: hybridoma supernatant, OD450 nm
Method: Cell-ELISA. Sterile 96-well plates (Costar #3595) were pre-treated with 50 μl/well of branched polyethyleneimine (PEI, Sigma Cat #408727) at 25 μg/ml in PBS for 30 min at room temperature. PEI was removed and CHO-3E7 or hNAv1.7-CHO (ChanTest cat #CT4003) were seeded at 6×10^5 cells per well in FreeStyle F17 Expression Medium (Gibco Cat #A1383501) and incubated overnight at 37° C., 5% CO2. Microplates were blocked with Starting block (Thermofisher Cat #37538) for 30 min at room temperature, and 50 μl of hybridoma supernatants were added and incubated at 4° C. for 3 h. Plates were washed 5 times with PBS and incubated for one hour at 4° C. with 50 μl of secondary antibody HRP-conjugated F(ab′)2 goat anti-mouse IgG (H+L) (Jackson Immunoresearch #115-036-062) diluted 1/5000 in blocking buffer. After 10 washes with PBS, 50 μl of TMB substrate solution (Pierce Cat #34021) was added and further incubated for 60 min at room temperature. Twenty-five μl/well of stop solution ([…] 1M) was added and OD450 nm measurements were done using a microplate reader (Spectramax 340 PC, Molecular Devices).

hNav1.7 channels = hNav1.7 channels (Homo sapiens, UniProt Q15858, W1161R); assay: Patch-clamp whole-cell recordings in hNav1.7-HEK293 cells; format: cell-based
FC5DIE3IR [2] = biological target: T1, FC5DIE3IR (Homo sapiens, UniProt Q15858); assay: Hydrogen-Deuterium Exchange Mass Spectrometry (HDX-MS); format: binding; details: labelling 1, 10 and 60 min
T1 construct: The supernatant was collected and loaded on a 5 ml MabSelect™ SuRe™ column; made in house; host or cells: CHO-3E7 (transient, pTT5 vector), purified from supernatant

FC5DIE3IR [3] = biological target: T1, FC5DIE3IR; assay: Surface Plasmon Resonance of mAbs, FC5DIE3IR; format: binding
Method: as §1, §2, §3

[4] = −20 mV, after antibody application (1 μM)

Sequence of VHH FC5 (as listed by the source): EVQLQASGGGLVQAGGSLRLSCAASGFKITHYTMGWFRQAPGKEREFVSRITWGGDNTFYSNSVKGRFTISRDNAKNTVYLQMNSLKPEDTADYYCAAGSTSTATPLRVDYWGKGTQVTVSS

B1: 3A8: anti-hNav1.7 mouse monoclonal antibody, IgG2a, k; heavy chain SEQ ID NO: 12, light chain SEQ ID NO: 18 (antibody, V domains shown)
VH: QVQLQQPGAELVKPGASVKLSCKASGYTFTNYWMHWVKQRPGQGLEWIGEINPSNGRANYNEKFKSKATLTVDKSSSTAYMQLSSLTSEDSAVYYCARSPYGYYDYWGQGTTLTVSSAKTTAPSVYPLAP
VL: DVLMTQTPLSLPVSLGDQASISCRSSQSLLHSNGNTYFHWYLQKPGQSPKLLIYKVSNRFFGVPDRFSGSGSGTDFTLKISRVEAEDLGVYFCSQITHVPLTFGAGTKLELKRADAAPTVSIFPPSS
modifications: Heavy chain of the 3A8 antibody without leader sequence; Light chain of the 3A8 antibody without leader sequence
[1]
  Peptide in which the binding motif resides / that is bound: pep #2a
VHH FC5
  Binding to FC5 control (comment, in words): did not bind FC5; also recorded: No binding
CHO-3E7; duplicate 1
  ELISA on live cells (duplicates) CHO-3E7: −0.027
CHO-3E7; duplicate 2
  ELISA on live cells (duplicates) CHO-3E7: −0.018
hNav1.7 channels; 1 μM
  Voltage-dependence of activation (shift V1/2 activation): −6.0±1.0 mV and −6.0 mV
  Voltage-dependence of the steady-state fast inactivation (shift V1/2 inactivation): −7.1±1.7 mV and −7.1 mV
hNav1.7 channels; 1 μM, single time-course recording (FIG. 6B)
  Reduction of the hNav1.7 current in the time course: approx. 13%
hNav1.7 channels; 1 μM, single time-course recording of the figure
  Onset time of the effect (exponential fit of the current decay, T): 176 s
hNav1.7 channels; example recordings, 1-3 μM
  Effect on hNav1.7 currents (in words): reduced the hNav1.7 currents in a dose dependent manner
hNav1.7 channels; [4]
  Fast inactivation (time constant): 0.72 ± 0.08 ms and 0.72 ms
  Time-to-peak: 0.88 ± 0.07 ms and 0.88 ms
FC5DIE3IR [2]
  Stabilization of FC5DIE3IR in response to mAb binding (residues, differential HDX-MS): Asn121-Tyr134
FC5DIE3IR [3]
  ka: 7050 M⁻¹ s⁻¹
  kd: 0.000259 s⁻¹
FC5DIE3IR [3]; Fc-captured mAb, FC5-DIE3IR flowed, 25 °C
  Rmax (RU): 80 RU
FC5DIE3IR [3]; SPR, 25 °C
  Binding to FC5DIE3IR (comment, in words): bound specifically FC5DIE3IR; also recorded: strong and specific binding; also recorded: strongly and specifically bound; also recorded: extremely slow off rate
